Data reported in patent publication US20100260765A1 (AstraZeneca / MedImmune, published 2010).

Key:
[1] = target: T1, human KDR (human, UniProt P35968 20-1356); experiment: cell-based or functional assay
[2] = target: T1, human KDR; experiment: cell-based or functional assay; remark: listed apart in the source
[3] = target: T1, human KDR; experiment: cell-based or functional assay; remark: listed apart in the source
[4] = target: T2, mouse KDR (Flk-1)/Fc (Cat. #443-KD/CF, R&D Systems, Inc.) (mouse, UniProt P35918 20-762); experiment: ELISA, Flk-1 coat 5 ug/mL, antibody 1 ug/mL
T2 construct: Bought reagent; also called mouse VEGFR2; KDR mouse ortholog; not shown: Fc of the bought fusion protein
Procedure: (§1) The cross-reactivity of purified antibodies was tested against KDR mouse ortholog KDR mouse ortholog (mouse VEGFR2, or Flk-1) and human VEGFR1 (Flt-1). The ability of the antibodies to bind soluble KDR Ig4-7 domain and to the entire KDR extracellular domain (ECD) was also measured.
(§2) Cross-reactivity experiments were carried out and measured using an ELISA based assay as described in Example 6. […] Antibody controls included IgG1 and IgG4 (Sigma-Aldrich, Cat. #15154 and #14639, respectively).

[5] = target: T2, mouse KDR (Flk-1)/Fc (Cat. #443-KD/CF, …); experiment: ELISA, Flk-1 coat 5 ug/mL, antibody 0.1 ug/mL
Procedure: as §1, §2

[6] = target: T3, whole KDR-ECD (Cat. # 676490, Calbiochem) (human, UniProt P35968 20-764); experiment: ELISA, KDR-ECD coat 5 ug/mL, antibody 1 ug/mL
T3 construct: extracellular domain; Bought soluble protein; also called soluble KDR; VEGF Receptor 2 D1-7
Procedure, shortened: (§3)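 Coat wells with the recombinant receptor protein, add purified antibody, then detect the bound antibody by ELISA. Isotype IgG1 and IgG4 are run alongside as controls.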

[7] = target: T2, mouse KDR (Flk-1)/Fc (Cat. #443-KD/CF, …); experiment: ELISA, Flk-1 coat 5 ug/mL, antibody 0.01 ug/mL
Procedure: as §1, §2

[8] = target: T3, whole KDR-ECD (Cat. # 676490, …); experiment: ELISA, KDR-ECD coat 5 ug/mL, antibody 0.1 ug/mL
Procedure, shortened: as §3

[9] = target: T3, whole KDR-ECD (Cat. # 676490, …); experiment: ELISA, KDR-ECD coat 5 ug/mL, antibody 0.01 ug/mL
Procedure, shortened: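 Purified antibodies were tested by ELISA for binding to immobilised target protein to assess cross-reactivity with the mouse ortholog and binding to the soluble Ig4-7 fragment. IgG1 and IgG4 isotype antibodies served as controls.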

[10] = target: T4, soluble KDR Ig4-7 domain (human, UniProt P35968 328-764); experiment: ELISA, KDR Ig4-7 coat (1:1 diln.), antibody 1 ug/mL
T4 construct: domain: Ig4-7 domain; also called b-KDRIg4-7-myc-his; Ig4-7 domain of KDR; not shown: myc-his tag of the pSecTag construct
Procedure, shortened: (§4)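 Purified antibodies tested by ELISA for cross-reactivity against coated mouse Flk-1/Fc and for binding to soluble KDR Ig4-7 domain; […]. IgG1 and IgG4 served as antibody controls.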

[11] = target: T4, soluble KDR Ig4-7 domain; experiment: ELISA, KDR Ig4-7 coat (1:1 diln.), antibody 0.1 ug/mL
Procedure, shortened: as §4

[12] = target: T5, cynomolgus KDR (cynomolgus monkey, UniProt A0A2K5VE63 20-1356); experiment: FACS on Cyno KDR/293T transfectants, antibody 5 ug/mL
T5 construct: whole, on cells; also called Cyno KDR
Procedure: The binding of purified antibodies to cell-bound cynomolgus KDR (with parental cells as negative control) was tested by FACS analysis in this assay.
Cynomolgus KDR was cloned in 3 pieces. One piece was PCR amplified from cynomolgus lung cDNA, and the remaining two pieces were PCR amplified from cynomolgus kidney cDNA. The three PCR products were inserted into pCR3.1 Bid vector. […] Transfected cells were seeded at 50,000 cells/well and incubated with 5 μg/mL of candidate antibody for one hour at 4° C. The cells were then washed and incubated with secondary antibody (Cy5-conjugated goat anti-human antibody, or Cy5-conjugated rabbit anti-goat antibody, plus 7-Amino-Actinomycin (7AAD)) for 15 minutes at 4° C. Binding between cynomolgus KDR and purified antibody was detected by FACS analysis.

[13] = target: T4, soluble KDR Ig4-7 domain; experiment: ELISA, KDR Ig4-7 coat (1:1 diln.), antibody 0.01 ug/mL
Procedure, shortened: as §4

[14] = target: T1, human KDR; experiment: FACS titration of purified antibody on HUVEC cells (FACS Kd)
Procedure: The binding affinities of the purified antibodies for endogenously-expressed KDR in HUVEC cells was measured. HUVEC cells were seeded at 150,000 cells/well and incubated with titrations of purified antibody for 4 hours at 4° C. The cells were then washed and incubated with goat anti-human IgG-Fc-Cy5+5 μg/mL 7-Amino-Actinomycin (7AAD) for 30 minutes at 4° C. Bound KDR was detected using FACS analysis.

[15] = target: T1, human KDR; experiment: FACS competition on 293T/human KDR transfectants; antibody 5 ug/mL first, then competitor VEGF165 50 ng/mL; bound VEGF165 detected
Procedure: (§5) Transfected cells were then seeded at 50,000 cells/well and incubated with 5 μg/mL of candidate antibody for one hour at 4° C. […] After washing, the cells were incubated with Cy5-conjugated rabbit anti-goat antibody plus 7AAD for 15 minutes at 4° C.

[16] = target: T1, human KDR; experiment: FACS competition on 293T/human KDR transfectants; antibody 5 ug/mL first, then competitor VEGF165 50 ng/mL; inhibition of VEGF binding
Procedure: as §5

T1 sequence (P35968 20-1356): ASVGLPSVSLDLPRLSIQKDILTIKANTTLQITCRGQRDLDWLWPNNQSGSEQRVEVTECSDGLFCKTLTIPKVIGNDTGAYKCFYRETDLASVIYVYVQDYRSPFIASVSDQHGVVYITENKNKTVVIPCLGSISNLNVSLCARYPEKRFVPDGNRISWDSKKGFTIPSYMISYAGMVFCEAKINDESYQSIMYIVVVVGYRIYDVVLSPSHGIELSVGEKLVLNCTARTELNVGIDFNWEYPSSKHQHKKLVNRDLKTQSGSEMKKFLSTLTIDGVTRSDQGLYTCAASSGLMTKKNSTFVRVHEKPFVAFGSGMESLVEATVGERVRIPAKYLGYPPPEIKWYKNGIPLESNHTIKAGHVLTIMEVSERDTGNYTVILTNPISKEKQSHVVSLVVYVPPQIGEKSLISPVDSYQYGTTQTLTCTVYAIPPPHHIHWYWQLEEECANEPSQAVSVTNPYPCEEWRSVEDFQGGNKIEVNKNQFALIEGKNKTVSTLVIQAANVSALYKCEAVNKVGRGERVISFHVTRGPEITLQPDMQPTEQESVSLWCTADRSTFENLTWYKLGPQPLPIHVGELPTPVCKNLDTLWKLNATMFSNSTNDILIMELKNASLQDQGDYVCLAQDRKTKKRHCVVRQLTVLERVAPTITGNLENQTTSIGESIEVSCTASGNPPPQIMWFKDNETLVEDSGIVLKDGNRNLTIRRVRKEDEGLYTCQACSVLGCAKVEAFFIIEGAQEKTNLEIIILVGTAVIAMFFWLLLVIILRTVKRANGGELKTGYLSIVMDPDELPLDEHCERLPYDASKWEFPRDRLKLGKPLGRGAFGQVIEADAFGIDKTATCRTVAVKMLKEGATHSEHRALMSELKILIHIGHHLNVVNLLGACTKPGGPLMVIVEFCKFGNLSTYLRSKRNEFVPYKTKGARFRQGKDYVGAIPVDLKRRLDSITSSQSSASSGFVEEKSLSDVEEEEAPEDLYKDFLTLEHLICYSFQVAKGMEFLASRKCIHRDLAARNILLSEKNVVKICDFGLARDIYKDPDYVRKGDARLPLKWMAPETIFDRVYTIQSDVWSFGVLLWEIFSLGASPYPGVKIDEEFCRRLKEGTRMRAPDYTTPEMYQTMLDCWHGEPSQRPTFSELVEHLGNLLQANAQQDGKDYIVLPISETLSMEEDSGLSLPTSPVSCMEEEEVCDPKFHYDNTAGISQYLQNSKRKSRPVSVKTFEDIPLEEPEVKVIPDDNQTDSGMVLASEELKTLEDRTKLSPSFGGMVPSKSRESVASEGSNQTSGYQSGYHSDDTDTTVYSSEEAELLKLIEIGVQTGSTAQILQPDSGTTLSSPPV
T5 sequence (A0A2K5VE63 entry or part of it): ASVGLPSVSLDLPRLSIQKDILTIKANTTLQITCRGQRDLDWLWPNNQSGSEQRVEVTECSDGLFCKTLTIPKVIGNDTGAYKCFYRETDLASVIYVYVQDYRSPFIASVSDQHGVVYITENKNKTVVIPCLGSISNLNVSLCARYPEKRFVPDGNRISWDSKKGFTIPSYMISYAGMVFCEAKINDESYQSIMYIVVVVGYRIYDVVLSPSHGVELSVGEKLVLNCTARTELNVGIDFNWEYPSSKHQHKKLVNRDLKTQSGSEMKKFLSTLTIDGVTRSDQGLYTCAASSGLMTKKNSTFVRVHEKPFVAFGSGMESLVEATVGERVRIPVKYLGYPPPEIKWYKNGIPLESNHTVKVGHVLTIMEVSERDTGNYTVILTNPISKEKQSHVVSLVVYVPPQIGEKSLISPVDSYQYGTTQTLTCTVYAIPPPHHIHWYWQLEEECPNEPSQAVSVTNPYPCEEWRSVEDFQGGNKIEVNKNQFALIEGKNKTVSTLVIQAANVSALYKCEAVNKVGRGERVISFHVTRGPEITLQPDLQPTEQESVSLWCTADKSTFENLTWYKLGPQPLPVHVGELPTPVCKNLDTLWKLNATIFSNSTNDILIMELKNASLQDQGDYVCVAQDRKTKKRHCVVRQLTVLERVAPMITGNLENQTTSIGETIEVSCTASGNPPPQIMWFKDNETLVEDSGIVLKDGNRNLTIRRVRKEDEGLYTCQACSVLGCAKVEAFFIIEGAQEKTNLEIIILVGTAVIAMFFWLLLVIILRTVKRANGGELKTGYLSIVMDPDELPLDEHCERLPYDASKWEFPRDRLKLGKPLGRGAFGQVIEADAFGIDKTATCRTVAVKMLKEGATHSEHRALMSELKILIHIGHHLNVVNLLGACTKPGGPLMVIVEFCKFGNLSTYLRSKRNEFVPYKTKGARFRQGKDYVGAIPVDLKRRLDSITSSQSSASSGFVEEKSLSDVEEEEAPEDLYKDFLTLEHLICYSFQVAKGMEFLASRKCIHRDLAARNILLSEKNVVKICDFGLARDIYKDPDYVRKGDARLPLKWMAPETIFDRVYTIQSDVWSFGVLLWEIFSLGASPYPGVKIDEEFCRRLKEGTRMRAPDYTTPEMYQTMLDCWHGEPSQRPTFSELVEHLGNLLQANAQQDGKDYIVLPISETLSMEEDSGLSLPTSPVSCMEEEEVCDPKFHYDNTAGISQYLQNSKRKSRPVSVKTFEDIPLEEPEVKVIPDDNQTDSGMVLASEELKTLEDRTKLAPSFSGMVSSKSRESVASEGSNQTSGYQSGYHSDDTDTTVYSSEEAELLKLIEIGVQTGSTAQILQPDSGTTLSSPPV
T3 sequence (P35968 20-764): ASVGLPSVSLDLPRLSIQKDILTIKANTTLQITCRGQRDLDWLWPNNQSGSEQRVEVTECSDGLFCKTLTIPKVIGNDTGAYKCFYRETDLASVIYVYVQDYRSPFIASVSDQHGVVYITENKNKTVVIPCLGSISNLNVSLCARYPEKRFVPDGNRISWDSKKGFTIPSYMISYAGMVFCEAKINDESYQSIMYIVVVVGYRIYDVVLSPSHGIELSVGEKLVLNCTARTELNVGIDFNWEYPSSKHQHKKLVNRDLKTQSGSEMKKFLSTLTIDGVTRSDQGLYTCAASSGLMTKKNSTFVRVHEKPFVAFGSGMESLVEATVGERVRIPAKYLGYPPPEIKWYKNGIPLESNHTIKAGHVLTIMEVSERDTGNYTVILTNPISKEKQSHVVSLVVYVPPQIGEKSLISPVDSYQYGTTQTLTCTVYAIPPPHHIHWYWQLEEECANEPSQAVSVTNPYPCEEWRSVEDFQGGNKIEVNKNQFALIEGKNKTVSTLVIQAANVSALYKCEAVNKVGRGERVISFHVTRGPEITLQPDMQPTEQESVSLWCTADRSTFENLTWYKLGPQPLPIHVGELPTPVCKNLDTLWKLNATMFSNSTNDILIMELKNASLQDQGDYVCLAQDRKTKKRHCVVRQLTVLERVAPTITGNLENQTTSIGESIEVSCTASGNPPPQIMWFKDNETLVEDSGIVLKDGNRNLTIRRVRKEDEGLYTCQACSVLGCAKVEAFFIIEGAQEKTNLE
T4 sequence (P35968 328-764): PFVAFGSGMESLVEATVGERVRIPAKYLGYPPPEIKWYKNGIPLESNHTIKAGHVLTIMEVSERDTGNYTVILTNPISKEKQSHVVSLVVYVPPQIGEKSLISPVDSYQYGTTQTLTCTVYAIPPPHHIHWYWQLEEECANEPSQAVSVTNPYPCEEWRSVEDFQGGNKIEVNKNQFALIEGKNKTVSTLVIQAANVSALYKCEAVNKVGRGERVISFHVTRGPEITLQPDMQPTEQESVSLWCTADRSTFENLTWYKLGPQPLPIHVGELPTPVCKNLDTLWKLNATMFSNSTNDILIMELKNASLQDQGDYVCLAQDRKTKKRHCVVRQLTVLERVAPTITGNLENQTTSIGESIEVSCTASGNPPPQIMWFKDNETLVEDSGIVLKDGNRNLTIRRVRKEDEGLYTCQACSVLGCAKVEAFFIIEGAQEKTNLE
T2 sequence (P35918 20-762 limits assumed): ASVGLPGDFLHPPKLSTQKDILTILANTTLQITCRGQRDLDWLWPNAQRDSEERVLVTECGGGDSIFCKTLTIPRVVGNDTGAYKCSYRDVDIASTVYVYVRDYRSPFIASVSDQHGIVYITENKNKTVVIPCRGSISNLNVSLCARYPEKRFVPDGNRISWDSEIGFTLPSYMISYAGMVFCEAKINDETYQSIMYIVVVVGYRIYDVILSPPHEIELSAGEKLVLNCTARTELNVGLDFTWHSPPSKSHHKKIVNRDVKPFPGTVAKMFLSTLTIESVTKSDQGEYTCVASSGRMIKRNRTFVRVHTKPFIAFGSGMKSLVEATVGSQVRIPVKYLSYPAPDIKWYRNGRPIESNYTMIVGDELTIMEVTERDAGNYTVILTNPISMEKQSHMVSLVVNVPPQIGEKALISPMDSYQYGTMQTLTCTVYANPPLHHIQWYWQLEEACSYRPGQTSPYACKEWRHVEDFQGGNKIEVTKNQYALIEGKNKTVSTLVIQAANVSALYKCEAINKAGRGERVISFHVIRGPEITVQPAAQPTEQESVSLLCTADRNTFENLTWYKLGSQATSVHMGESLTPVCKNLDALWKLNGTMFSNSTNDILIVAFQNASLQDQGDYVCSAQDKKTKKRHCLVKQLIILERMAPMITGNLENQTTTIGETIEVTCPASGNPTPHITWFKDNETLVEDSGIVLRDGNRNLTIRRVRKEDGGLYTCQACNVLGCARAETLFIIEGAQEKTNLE

Row | Binder | KDR tyrosine phosphorylation in HUVEC, EC50 (nM), Average [1] | KDR tyrosine phosphorylation in HUVEC, EC50 (nM), N = 1 [1] | KDR tyrosine phosphorylation in HUVEC, EC50 (nM), N = 2 [1] | KDR tyrosine phosphorylation in HUVEC, Maximum Inhibition at 100 nM (% Inhibition), Average [1] | KDR tyrosine phosphorylation in HUVEC, Maximum Inhibition at 100 nM (% Inhibition), N = 1 [1] | KDR tyrosine phosphorylation in HUVEC, Maximum Inhibition at 100 nM (% Inhibition), N = 2 [1] | HUVEC survival, Maximum Inhibition at 50 nM (% Inhibition), Average [2] | HUVEC survival, Maximum Inhibition at 50 nM (% Inhibition), N = 1 [2] | HUVEC survival, Maximum Inhibition at 50 nM (% Inhibition), N = 2 [2] | 6-keto Prostaglandin F1α release, EC50 (nM), Average [3] | 6-keto Prostaglandin F1α release, EC50 (nM), N = 1 [3] | 6-keto Prostaglandin F1α release, EC50 (nM), N = 2 [3] | 6-keto Prostaglandin F1α release, Maximum Inhibition (% Inhibition), Average [3] | 6-keto Prostaglandin F1α release, Maximum Inhibition (% Inhibition), N = 1 (200 nM) [3] | 6-keto Prostaglandin F1α release, Maximum Inhibition (% Inhibition), N = 2 (333 nM) [3] | ELISA reading [4] | ELISA reading [5] | ELISA reading [6] | ELISA reading [7] | ELISA reading [8] | further results
1 | 32F4 (antibody, V domains shown, Fully human monoclonal antibody from a XenoMouse hybridoma (IgG2 or IgG4 strain), purified) VH: QLQLQESGPGLVKPSGTLSLSCTVSGGSISSRSDYWGWIRQPPGKGLEWIGTIYYSGNTFYNPSLKSRVTISVDTSKKQFSLKLSSVTAADTAVYYCARQQLVLYYFDYWGQGTLVTVSS VL: EIVLTQSPGTLSLSPGERATLSCRTSQSVSSSYLAWYQQKPGQAPRLLIYGASSRATGVPDRFSGSGSGTDFSLTISRLEPEDFAVYYCQQYGSSPPLTFGGGTKVEIK | 1.8 nM | 1.7 nM | 1.9 nM | 75% | 71% | 79% | 92% | 91% | 94% | 4.5 nM | 4.4 nM | 4.6 nM | 48% | 42% | 54% | 2.62 | 2 | 1.93 | 0.802 | 0.132 | ELISA reading [9]: 0.09; ELISA reading [10]: 0.114; ELISA reading [11]: 0.079; FACS Geometric Mean Fluorescence [12]: 105; ELISA reading [13]: 0.076; Kd [14]: 1.8 nM; FACS Geometric Mean Fluorescence (bound VEGF165) [15]: 112; % Inhibition [16]: 14%
2 | 33B1 (antibody, V domains shown, Fully human monoclonal antibody from a XenoMouse hybridoma (IgG2 or IgG4 strain), purified) VH: EVQLVESGGGLVKPGGSLRLSCAASGFTFSSYTMNWVRQAPGKGLEWVSFIDSRSSYIYYADSVKGRFTISRDNAKNSLYLQMNSLRAEDTAVYYCSKDDWFEELWGQGTLVTVSS VL: DIQMTQSPSSLSASVGDRVTITCRASQGIRNDLGWYQQKPGKAPKRLIYATSSLQSGVPSRFSGSGSGTEFTLTISSLQPEDFATYYCLHHNSFPWTFGQGTKVEIK | 1.1 nM | 1.2 nM | 1.1 nM | 86% | 86% | 86% | 57% | 55% | 59% | 3840 nM | 17 nM | 7670 nM | 53% | 31% | 76% | 3.12 | 2.1 | 1.99 | 0.753 | 0.178 | ELISA reading [9]: 0.072; ELISA reading [10]: 3.04; ELISA reading [11]: 2.14; FACS Geometric Mean Fluorescence [12]: 108; ELISA reading [13]: 0.609; Kd [14]: 0.2 nM; FACS Geometric Mean Fluorescence (bound VEGF165) [15]: 81; % Inhibition [16]: 40%
3 | 24B3 (antibody, V domains shown, Fully human monoclonal antibody from a XenoMouse hybridoma (IgG2 or IgG4 strain), purified) VH: EVQLVESGGGLVKPGGSLRLSCAASGFTFSTYSMNWVRQAPGKGLEWVSFISGRSSYIYYADSVKGRFTISRDNAKNSLYLQMNSLRAEDTAVYYCSKDDWFEELWGQGTLVTVSS VL: DIQMTQSPSSLSASVGDRVTITCRASQGIRSDLGWYQQKPGKAPKRLIYATSSLQSGVPSRFSGSGSGTEFTLTISSLQPEDFATYYCLQHNRYPWTFGQGTKVEIK | 2.2 nM | 2.1 nM | 2.3 nM | 81% | 78% | 84% | 90% | 97% | 82% | 12.1 nM | 8.1 nM | 16.2 nM | 54% | 37% | 72% | 3.39 | 2.75 | 3.02 | 1.58 | 0.304 | ELISA reading [9]: 0.09; ELISA reading [10]: 3.47; ELISA reading [11]: 2.8; FACS Geometric Mean Fluorescence [12]: 68.4; ELISA reading [13]: 1.45; Kd [14]: 0.8 nM; FACS Geometric Mean Fluorescence (bound VEGF165) [15]: 97; % Inhibition [16]: 27%
